From the supplement of paper PMC9876800

System: peptide library, one residue held at a place counted from the S/T acceptor
Assay: relative phosphorylation of the sub-library (ratio to the mean residue at this position); higher = residue favoured
Settings: human
Summary of the method: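 Spots on streptavidin membranes were phosphorimaged and quantified by densitometry to measure phosphorylation of biotinylated degenerate peptide sub-libraries by purified recombinant kinases, human or orthologue constructs. The reactions ran in 384-well plates for 90 min under kinase-specific conditions, with peptides at 50 μM and 50 μM ATP spiked with γ-32P-ATP. Relative sub-library phosphorylation is the ratio to the mean residue at that position.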

MINK1, construct: aa1-320, sequence (Q8N4C8 1-320, looked up): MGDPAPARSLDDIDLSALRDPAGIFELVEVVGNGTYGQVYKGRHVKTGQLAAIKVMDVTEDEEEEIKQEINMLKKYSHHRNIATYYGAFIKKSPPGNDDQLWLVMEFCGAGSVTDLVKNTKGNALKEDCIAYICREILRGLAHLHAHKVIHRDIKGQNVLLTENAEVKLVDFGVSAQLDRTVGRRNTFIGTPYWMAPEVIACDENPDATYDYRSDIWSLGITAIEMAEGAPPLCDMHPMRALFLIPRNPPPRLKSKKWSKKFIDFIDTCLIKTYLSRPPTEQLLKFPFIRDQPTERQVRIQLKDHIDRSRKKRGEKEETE

MINK1, construct: aa1-320 (from UniProt Q8N4C8)
relative phosphorylation
Settings	at +1	at +2	at +3	at +4	at -1	at -2	at -3	at -4	at -5
A fixed	0.635	0.904	0.864	0.99	0.952	1.11	1.02	1.08	1.28
D fixed	0.177	0.699	0.464	0.556	0.854	0.746	0.867	1	0.995
E fixed	0.187	0.749	0.405	0.574	0.536	0.498	0.818	0.891	0.801
F fixed	1.16	0.577	0.764	0.533	0.778	1.55	0.946	1.07	0.8
G fixed	0.708	1.09	0.959	1.28	1.69	1.19	1.19	1.19	1.2
H fixed	0.783	1.25	1.25	1.22	1.31	1.13	1.2	1.08	1.09
I fixed	1.91	0.664	0.726	0.983	0.385	0.769	0.784	0.793	0.894
K fixed	0.669	1.93	2.35	1.94	1.25	0.713	1.01	0.947	0.979
L fixed	2.89	0.776	0.869	0.75	0.926	0.789	0.829	0.78	0.73
M fixed	2.32	0.86	0.681	0.897	1.15	0.952	0.95	0.917	0.87
N fixed	0.677	0.937	0.721	1.04	1.49	1.03	1.26	1.03	1.09
P fixed	0.194	1.09	0.892	0.943	0.646	0.675	0.846	0.959	1.06
Q fixed	0.587	0.914	0.818	0.926	1.11	0.882	0.9	0.996	0.958
R fixed	0.65	2.39	2.76	1.74	1.4	0.821	1.15	0.971	1.19
V fixed	1.06	0.763	0.773	0.743	0.536	0.893	0.858	0.966	0.98
W fixed	1.45	0.591	0.928	1.07	0.822	1.38	1.28	1.18	0.978
Y fixed	0.94	0.815	0.778	0.818	1.17	1.87	1.09	1.15	1.1
pThr fixed	0.703	0.621	0.744	0.601	0.629	0.963	1.18	1.07	1.14
pTyr fixed	0.282	0.462	0.623	0.51	0.797	0.745	1.04	0.679	1.06
